Measured values reported in patent US20260152569A1, “ANTI-GPC1 MONOCLONAL ANTIBODY, THERAPEUTIC AND DIAGNOSTIC USES THEREOF” (CENTRO DI RIFERIMENTO ONCOLOGICO DI AVIANO, priority 2022, published 2026).
Where “and” joins values, the source holds several entries; their conditions need not be identical. Identical values can stand only once.

Columns and labels:
BXPC3 tumor [1] = assay: Therapeutic effect of doxorubicin-loaded chitosan nanobubbles in BXPC3 mouse model
Protocol: The amount of doxorubicin loaded nanobubbles used for the treatments in each group corresponded to 2 mg/kg per week of doxorubicin for each different treatment modality. Data are represented as mean±SD.
P-value was calculated using the log-rank test. Colored areas correspond to 95% confidence interval.
The survival data from the four treatments were evaluated by Kaplan-Meier curves to compare each treatment with one at time of the others. […] P-value was calculated using the log-rank test. Colored areas correspond to 95% confidence interval.
The study started when the subcutaneous BXPC3-tumor reached a volume of 75 mm^3. The humanitarian endpoints that had caused the euthanasia of mice were: one tumor dimension greater than 12 mm or ulceration of the tumor. Four groups of mice were tested: a first group of animals treated with doxo-CS NBs-C (n=6); a second group of animals treated with doxo-CS NBs (n=6); a third group of control animals treated with doxorubicin (doxo 2 mg/kg) in order to treat mice at the same concentration (2 mg/kg for a week) (n=10); a fourth group of control animals treated with PBS solution (n=8).
Mice survival was evaluated using Kaplan-Meier curves and the p-value was calculate using log rank test.

GPC1 protein [2] = assay: Flow cytometry analysis of GPC1 expression in cell lines; assay type: cell-based, human; conditions: JURKAT cell line (complete absence of GPC1 protein)
Protocol: (§1) Remarkably, the same expression pattern as flow cytometry analysis was obtained by immunofluorescence analysis with anti-GPC1 C. […] Thus, the results of immunofluorescence analysis confirmed the ability of anti-GPC1 C to detect the GPC1 protein that was observed when flow cytometry was performed (FIGS. 1A, 1B). • c) Anti-GPC1 C was also shown to specifically recognize GPC1 protein in GBM tissue samples from surgical resection.

GPC1 protein [3] = assay: Immunofluorescence of GPC1 protein in cell lines; assay type: cell-based, human; conditions: JURKAT cells
Protocol: as §1

GPC1 protein [4] = molecular target: T1, GPC1 protein (Homo sapiens, UniProt P35052); assay: Immunofluorescence of GPC1 protein in BXPC3 xenograft tumor masses and mouse organs; parameters: species or system athymic nude mice; conditions: tumor masses of BXPC3 xenografts
T1 construct: in tumor masses of xenografts obtained by subcutaneous injection of BXPC3 into athymic nude mice; from tissue; host or cells: BXPC3 xenograft tumour masses from athymic nude mice; organs of the same mice as negative control
T1 sequence (P35052 24-530 limits assumed): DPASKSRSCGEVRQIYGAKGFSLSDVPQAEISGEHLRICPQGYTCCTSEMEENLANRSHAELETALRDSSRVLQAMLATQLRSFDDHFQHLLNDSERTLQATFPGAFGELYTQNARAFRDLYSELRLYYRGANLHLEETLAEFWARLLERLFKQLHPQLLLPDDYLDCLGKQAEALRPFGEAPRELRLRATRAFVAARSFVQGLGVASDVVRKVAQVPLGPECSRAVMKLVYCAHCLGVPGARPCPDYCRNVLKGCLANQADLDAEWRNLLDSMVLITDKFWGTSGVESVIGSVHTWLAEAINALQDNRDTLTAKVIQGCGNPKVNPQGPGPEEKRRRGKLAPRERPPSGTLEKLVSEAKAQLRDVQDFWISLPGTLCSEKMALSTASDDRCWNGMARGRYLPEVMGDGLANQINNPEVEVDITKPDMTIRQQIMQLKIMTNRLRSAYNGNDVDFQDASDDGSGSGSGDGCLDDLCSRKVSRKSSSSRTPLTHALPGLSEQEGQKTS
Protocol: (§2) Scale bar corresponds to 25 μm.
as §1

GPC1 protein [5] = assay: as above; parameters: species or system athymic nude mice; conditions: organs of the xenograft mice
Protocol: as §2, §1

BXPC3 tumor mass [6] = assay: In vivo and ex vivo biodistribution of Cy5.5-conjugated anti-GPC1 C in BXPC3 xenograft mice; parameters: species or system athymic nude mice
Protocol: Whole-body scan of a representative mouse in prone and supine position is shown. […] Green circles enclose the tumor mass.
Data are reported as average efficiency mean±SD (n=4). P-value was calculated using the t-test, for the t-test, anti-GPC1 C was used as reference for each time point. ns: ≥0.05; *: 0.05<p≤0.01; **: 0.01<p≤0.001.
Data are reported as mean±SD (n=4). P-value was calculated using the t-test. ns: ≥0.05.
Blue represents nuclei and green represents IgMs. Scale bar corresponds to 25 μm.
Specifically, in vivo time course experiments with signal detection from 0 to 96 hours and signal evaluation every 24 hours were performed to evaluate the ability to target tumor mass and the overall biodistribution of anti-GPC1 C when injected into the mouse tail vein after conjugation with Cy5.5 for detection using the VIVOVISION IVIS®Lumina (Xenogen) in vivo imaging device (FIGS. 5A, B, C, D, E, F, G).

BXPC3 tumor [7] = system: BXPC3 tumor
Protocol: Experimental endpoint was set up at day 50. Untreated mice (orange line) were used as controls. Data were visualized using Kaplan-Meier analysis, p-value of 0.00016 was calculated using the log rank test.
Data are represented as mean±standard error (SE).
The treatment procedure started when the tumor reached a volume of 75 mm^3, and when possible, it was stopped at day 42. For mice reaching the day 42, the final experimental endpoint was set up at day 50 from the beginning of the treatment procedure.

GPC1 protein [8] = molecular target: T2, GPC1 protein (Homo sapiens, UniProt P35052); assay: Immunofluorescence of GPC1 protein in cell lines; assay type: cell-based; parameters: endogenous in cells; host or cells: BXPC3, U87MG, T98G (GPC1-expressing); conditions: BXPC3, U87MG and T98G cell lines
T2 sequence (P35052 24-530): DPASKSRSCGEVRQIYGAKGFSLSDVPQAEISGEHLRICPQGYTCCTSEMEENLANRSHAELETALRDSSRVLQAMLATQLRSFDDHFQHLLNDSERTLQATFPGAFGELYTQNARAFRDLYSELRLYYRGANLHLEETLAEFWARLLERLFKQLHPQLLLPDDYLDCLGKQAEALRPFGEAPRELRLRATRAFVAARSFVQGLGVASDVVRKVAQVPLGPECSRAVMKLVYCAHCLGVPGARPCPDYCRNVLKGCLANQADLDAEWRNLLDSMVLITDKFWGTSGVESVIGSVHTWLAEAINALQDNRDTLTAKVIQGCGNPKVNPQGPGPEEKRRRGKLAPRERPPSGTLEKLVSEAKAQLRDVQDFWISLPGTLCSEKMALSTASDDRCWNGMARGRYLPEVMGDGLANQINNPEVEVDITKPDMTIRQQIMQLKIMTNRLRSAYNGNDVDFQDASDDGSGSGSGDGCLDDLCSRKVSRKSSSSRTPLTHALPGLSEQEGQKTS
Protocol: as §1

GPC1 protein [9] = molecular target: T2, GPC1 protein; assay: Flow cytometry analysis of GPC1 expression in cell lines; assay type: cell-based; parameters: endogenous in cells; host or cells: BXPC3, U87MG, T98G (GPC1-expressing); JURKAT (no GPC1); conditions: GPC1-expressing BXPC3, U87MG and T98G cell lines
Protocol: as §1

BXPC3 tumor mass [10] = assay: Complement-dependent cytotoxicity in BXPC3 tumor mass (hematoxylin-eosin, immunofluorescence); conditions: compared with murine IgM pool or PBS
Protocol: The nuclei are stained in purple, the cytoplasm is stained in pink.
Blue represents nuclei and green represents the signal related to the immunological cell biomarkers (CD14 and CD56, respectively).
Blue represents nuclei and green represents the signal related to the complement system effectors (C1q, C3, C9, respectively).
To better characterize the source of cell death, the presence of complement system effectors, but also the recruitment of macrophages, and NK cells was also analyzed by immunofluorescence analysis (FIGS. 7A, 7B).
In particular, the involvement of the complement system was investigated, by analyzing C1q, C3 (C3b, iC3b, C3c), and C9.

GPC1 protein [11] = molecular target: T2, GPC1 protein; assay: Immunofluorescence of GPC1 protein in GBM, liver and lung tissue; parameters: specifically recognize GPC1 protein in GBM tissue samples from surgical resection; from tissue; host or cells: glioblastoma (GBM) tissue from surgical resection; healthy liver and lung tissue
Protocol: Scale bar corresponds to 50 μm.
as §1

[12] = i.v., Cy5.5 conjugate, in vivo imaging
[13] = 7 mice, i.p. 38 micrograms twice a week

For `COc1cccc2c1C(=O)c1c(O)c3c(c(O)c1C2=O)C[C@@](O)(C(=O)CO)C[C@@H]3O[C@H]1C[C@H](N)[C@H](O)[C@H](C)O1` [Doxo, doxorubicin], the “Mean survival ± S.D.” value (BXPC3 tumor [1]; 2 mg/kg doxorubicin per week) was 13.9 ± 1.59 days and the HR (BXPC3 tumor [1]; reference treatment: Untreated) was 0.19.

B1: anti-GPC1 C: anti-GPC1 IgM monoclonal antibody of the invention, heavy chain variable region SEQ ID NO: 13, light chain variable region SEQ ID NO: 14 (antibody, listed as Mus musculus, V domains shown)
VH: QVQLQQSDAELVKPGASVKISCKASGYTFTDHAIHWVKQKPEQGLEWIGYISPGNGDIKYNEKFKGKATLTADKSSSTAYMQLNSLTSEDSAVYFCKRYAYWGQGTLVTVSA
VL: DVLMTQTPLSLPVSLGDQASISCRSSQSIVHSNGNTYLEWYLQKPGQSPKLLIYKVSNRFSGVPDRFSGSGSGTDFTLKISRVEAEDLGVYYCFQGSHVPWTFGGGTKLEIKP
modifications: IgM constant regions
In the case of B1, the “GPC1 protein signal by flow cytometry” value (GPC1 protein [2]) is reported as “no signals corresponding to the presence of the GPC1 protein”, the “GPC1 protein signal by immunofluorescence” value (GPC1 protein [3]) is reported as “no signal was observed” and the “GPC1 protein recognition by immunofluorescence” value (GPC1 protein [4]) is reported as “specifically recognize the GPC1 protein”. For the same molecule, the “GPC1 protein signal by immunofluorescence” value (GPC1 protein [5]) was “no signals were obtained”, the “ex vivo accumulation in the tumor mass compared to the IgM pool” value (BXPC3 tumor mass [6]; 96 hours after administration, IVIS Lumina) was “higher accumulation” and the “ex vivo immunofluorescence detection in the BXPC3 tumor mass” value (BXPC3 tumor mass [6]; 96 hours after injection) was “still detected”. For the same molecule, the “time remaining in the tumor” value (BXPC3 tumor mass [6]; ex vivo immunofluorescence) was “at least 96 hours”, the “peak of accumulation on the tumor mass” value (BXPC3 tumor mass [6]; i.v., Cy5.5 conjugate, BXPC3 xenograft, imaging every 24 h from 0 to 96 h) was 72 h and the “signal in the kidneys and liver” value (BXPC3 tumor mass [6]; [12]) was “A clear signal”. For the same molecule, the “tumor mass signal at 96 hours” value (BXPC3 tumor mass [6]; [12]) was “maintained up to 96 hours”, the “% survival at day 50” value (BXPC3 tumor [7]; [13]) was 57.1% and the “Mean day of euthanasia/sacrifice” value (BXPC3 tumor [7]; [13]) was 42.7. The “Day of end point” value (BXPC3 tumor [7]; individual mouse, i.p. 38 micrograms twice a week until day 42, experimental endpoint day 50) was 28 and 29 and 42 and 50 (4×), the “complete remission of the tumor mass” value (BXPC3 tumor [7]; observed in one animal) was “complete remission” and the “survival time intervals versus PBS-treated mice” value (BXPC3 tumor [7]; p=0.00016, log-rank test) was “significantly longer”. For the same molecule, the “toxicity (weight loss, diarrhea, vomiting, convulsions, dehydration, tachypnea, dyspnea, motionless)” value (BXPC3 tumor [7]; treated group) was “no evidence of toxicity”, the “GPC1 protein signal by immunofluorescence” value (GPC1 protein [8]) was “a signal corresponding to the GPC1 protein was observed” and the “GPC1 protein recognition by flow cytometry” value (GPC1 protein [9]) was “specifically recognize the GPC1 protein”. The “tumor cell death by hematoxylin-eosin staining” value (BXPC3 tumor mass [10]; 96 hours) was “clear indicator of cell death”, the “complement system deposition (C1q, C3, C9), macrophage and NK cell recruitment in tumors” value (BXPC3 tumor mass [10]; immunofluorescence) was “high degree of complement system deposition (C1q, C3, C9), macrophage and NK cell recruitment” and the “GPC1 protein signal by immunofluorescence” value (GPC1 protein [11]; GBM tissue samples from surgical resection) was “a specific signal was observed”. The “GPC1 protein signal by immunofluorescence” value (GPC1 protein [11]; healthy tissues (liver and lung)) was “no signal corresponding to GPC1 protein was detected”.
